Earlier results in patent US20240307501A1 (priority 2021, published 2024).

Conditions: chronic doses of glucagon, patients with CHI, across 2 studies

Glucagon: native glucagon used off-label by IV or continuous SC infusion for CHI
patients with erythema necrolyticum: 4 out of 11
